For assay [1], the target named is T1, Atg3^∆FR (yeast Atg3 lacking the flexible region) (S. cerevisiae, UniProt P40344 1-310, ∆FR (FR, residues 85–159)).
T1 sequence: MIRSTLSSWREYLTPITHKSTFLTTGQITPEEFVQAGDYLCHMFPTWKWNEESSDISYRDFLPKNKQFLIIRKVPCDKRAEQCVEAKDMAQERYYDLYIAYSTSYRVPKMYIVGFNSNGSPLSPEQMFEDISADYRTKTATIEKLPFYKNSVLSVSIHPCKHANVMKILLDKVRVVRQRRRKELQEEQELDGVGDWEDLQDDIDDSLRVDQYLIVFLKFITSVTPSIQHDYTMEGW
Briefly: NMR.

In assay [2] the target is T2, Atg12–Atg5 conjugate (His-Atg12 100–186 conjugated to Atg5 1–284), minimal yeast autophagy E3 (S. cerevisiae, UniProt P38316 100-186; Q12380 1-284, conjugated to Atg5 (Atg12–Atg5 conjugate) | conjugated to Atg12 (Atg12–Atg5 conjugate)).
T2 construct: Atg12, S. cerevisiae, residues 100–186; Atg5, S. cerevisiae, residues 1–284, untagged; Covalent conjugate formed in E. coli by co-expressed Atg7 and Atg10; No removal of the His tag is told; also called His-Atg12–Atg5; minimal yeast E3; source: E. coli BL21, co-expressed with Atg7 1–630 and Atg10; purified (Ni-NTA, cation exchange); not shown: His6, N-terminal, kept
T2 sequence (looked up) 1: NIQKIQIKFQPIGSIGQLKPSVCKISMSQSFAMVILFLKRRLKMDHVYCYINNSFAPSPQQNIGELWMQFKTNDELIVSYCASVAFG
T2 sequence (looked up) 2: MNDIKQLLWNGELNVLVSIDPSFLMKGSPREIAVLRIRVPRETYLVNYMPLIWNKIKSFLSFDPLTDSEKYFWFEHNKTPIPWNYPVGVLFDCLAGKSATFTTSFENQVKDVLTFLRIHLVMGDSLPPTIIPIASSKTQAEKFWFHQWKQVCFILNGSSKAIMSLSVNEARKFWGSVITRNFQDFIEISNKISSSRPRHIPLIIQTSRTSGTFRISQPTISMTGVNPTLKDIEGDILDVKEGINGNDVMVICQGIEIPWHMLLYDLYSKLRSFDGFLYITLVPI
Put plainly: NMR titration; 0.1 mM 15N-labeled Atg3^FR 86–159 titrated with 0–150 µM unlabeled Atg12–Atg5; [15N,1H] TROSY; 25 °C, 20 mM MES pH 6.5, 100 mM NaCl, 10% D2O. The note with it: both partners purified.

The target of assay [3] is T1, Atg3^∆FR (yeast Atg3 lacking the …). Put plainly: NMR; average over E123IR residues.
In assay [4] the target is T2, Atg12–Atg5 conjugate (His-Atg12 100–186 …). Put plainly: SEC; purified His-Atg12–Atg5 combined with Atg16 1–46 in a 1:2 molar ratio, Superdex-200; peak fractions of the complex harvested. The note with it: both partners purified. Background: SEC sorts molecules by how far they enter the pores of the column.
Assay [5] deals with T3, Atg3^FR (residues 86–159), the intrinsically disordered flexible region of yeast Atg3 (S. cerevisiae, UniProt P40344 86-159).
T3 chain: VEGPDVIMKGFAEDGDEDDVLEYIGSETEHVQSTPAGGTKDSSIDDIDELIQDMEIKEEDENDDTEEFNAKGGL
Briefly: NMR; average over E123IR residues; Atg12–Atg5 with Atg16.

Changes are numbered by the printed parent chain. Names may count otherwise.

B1: Atg3^FR 86–159 mutant I132D, L135D, I136D (printed elsewhere as I136R) (domain or fragment)
chain: T3 chain with I47D, L50D, I51D
For the molecule B1, in assay [1], the equilibrium dissociation constant (Kd) came to 994 µM.

B2: Atg3^FR (residues 86–159), the intrinsically disordered flexible region of yeast Atg3 (domain or fragment, S. cerevisiae, UniProt P40344 86-159, looked up)
chain: T3 chain
notes: Atg3 (autophagy E2), S. cerevisiae, flexible region, residues 86–159; 15N-labelled (or 13C,15N-labelled) for NMR; The introduction gives the FR as residues 85–159, the construct is 86–159; also called Atg3^FR 86–159; holds the Atg3^E123IR element; source: purified
With B2, in assay [2], the binding result is recorded as “binds”. Further, the equilibrium dissociation constant (Kd) in assay [3] came to 238 µM.

B3: Atg16 (residues 1–46) (domain or fragment, S. cerevisiae, UniProt Q03818 1-46, looked up)
chain: MGNFIITERKKAKEERSNPQTDSMDDLLIRRLTDRNDKEAHLNELF
notes: Atg16, S. cerevisiae, residues 1–46; also called Atg16 1–46; source: purified
For B3, the binding result in assay [4] is reported as “binds”.

B4: Atg12–Atg5 conjugate (His-Atg12 100–186 conjugated to Atg5 1–284), minimal yeast autophagy E3 (complex)
chain 1: T2 sequence (looked up) 1
chain 2: T2 sequence (looked up) 2
modifications: conjugated to Atg5 (Atg12–Atg5 conjugate) | conjugated to Atg12 (Atg12–Atg5 conjugate)
For B4, in assay [5], the affinity, expressed as Kd, was 69 µM.

As usually defined, the Kd is the free concentration of one partner at which half of the binding sites on the other are occupied at equilibrium, for simple one-to-one binding. A lower Kd goes with tighter binding.

The values are drawn from publication PMC6689050, “A switch element in the autophagy E2 Atg3 mediates allosteric regulation across the lipidation cascade” (Nature Communications, 2019).
